Laboratory results taken from patent US7217570B2, “Organotypic intestinal culture and methods of use thereof” (The Wistar Institute of Anatomy and Biology, priority 2001, dated 2007).

Test system: enteric epithelial cells
Assay: Growth factor modulation of organotypic culture in reduced or modified media (Example 2)
Assay type: cell-based, human
Details: growth factor added individually to base medium (MCDB 201/L15, transferrin, antibiotics)
Description: To determine the role of growth factors on proliferation of colonic epithelial cells, this growth medium was modified by changing combinations of growth factors and deleting serum. Keratinocyte growth factor (KGF, R&D Systems) at 20 ng/ml was also tested as part of 23 growth factor combinations. Total relative cell numbers of a specific type were counted as an average of all nuclei counts from a minimum of 3 randomly selected cross-sections of a reconstruct. Goblet cells were counted based on their typical morphology and positive Alcian staining in at least 3 randomly selected slides. Proliferation rates in % were established by counting the number of BrdU or Ki-67-positive nuclei per total epithelial cell nuclei of section. Apoptotic cells were counted in H&E-stained sections (Vagunda, V. et al. 2000 Anal. Quant. Cytol. Histol., 22:307–310). Apoptotic bodies and nuclei were determined according to the size and numbers of the fragments. Apoptosis was calculated as percentage of total nuclei per section (Kerr, J F. et al. 1972 Br. J. Cancer, 26:239–257) To define the role of critical growth factors supporting growth and differentiation of the enteric epithelial cells, an organotypic culture, such as that described in Example 1, was grown in medium in which the number of supplements was reduced. […]

B1: epidermal growth factor (protein, UniProt P01133 23-1207, looked up)
Pro-epidermal growth factor: PQHWSCPEGTLAGNGNSTCVGPAPFLIFSHGNSIFRIDTEGTNYEQLVVDAGVSVIMDFHYNEKRIYWVDLERQLLQRVFLNGSRQERVCNIEKNVSGMAINWINEEVIWSNQQEGIITVTDMKGNNSHILLSALKYPANVAVDPVERFIFWSSEVAGSLYRADLDGVGVKALLETSEKITAVSLDVLDKRLFWIQYNREGSNSLICSCDYDGGSVHISKHPTQHNLFAMSLFGDRIFYSTWKMKTIWIANKHTGKDMVRINLHSSFVPLGELKVVHPLAQPKAEDDTWEPEQKLCKLRKGNCSSTVCGQDLQSHLCMCAEGYALSRDRKYCEDVNECAFWNHGCTLGCKNTPGSYYCTCPVGFVLLPDGKRCHQLVSCPRNVSECSHDCVLTSEGPLCFCPEGSVLERDGKTCSGCSSPDNGGCSQLCVPLSPVSWECDCFPGYDLQLDEKSCAASGPQPFLLFANSQDIRHMHFDGTDYGTLLSQQMGMVYALDHDPVENKIYFAHTALKWIERANMDGSQRERLIEEGVDVPEGLAVDWIGRRFYWTDRGKSLIGRSDLNGKRSKIITKENISQPRGIAVHPMAKRLFWTDTGINPRIESSSLQGLGRLVIASSDLIWPSGITIDFLTDKLYWCDAKQSVIEMANLDGSKRRRLTQNDVGHPFAVAVFEDYVWFSDWAMPSVMRVNKRTGKDRVRLQGSMLKPSSLVVVHPLAKPGADPCLYQNGGCEHICKKRLGTAWCSCREGFMKASDGKTCLALDGHQLLAGGEVDLKNQVTPLDILSKTRVSEDNITESQHMLVAEIMVSDQDDCAPVGCSMYARCISEGEDATCQCLKGFAGDGKLCSDIDECEMGVPVCPPASSKCINTEGGYVCRCSEGYQGDGIHCLDIDECQLGEHSCGENASCTNTEGGYTCMCAGRLSEPGLICPDSTPPPHLREDDHHYSVRNSDSECPLSHDGYCLHDGVCMYIEALDKYACNCVVGYIGERCQYRDLKWWELRHAGHGQQQKVIVVAVCVVVLVMLLLLSLWGAHYYRTQKLLSKNPKNPYEESSRDVRSRRPADTEDGMSSCPQPWFVVIKEHQDLKNGGQPVAGEDGQAADGSMQPTSWRQEPQLCGMGTEQGCWIPVSSDKGSCPQVMERSFHMPSYGTQTLEGGVEKPHSLLSANPLWQQRALDPPHQMELTQ
modifications: Pro-epidermal growth factor
notes: human recombinant epidermal growth factor (Sigma)
Question: With B1 as the molecule, how does the epithelial cell proliferation read?
Answer: not supported

B2: Keratinocyte growth factor (protein, UniProt P21781 32-194, looked up)
Fibroblast growth factor 7: CNDMTPEQMATNVNCSSPERHTRSYDYMEGGDIRVRRLFCRTQWYLRIDKRGKVKGTQEMKNNYNIMEIRTVAVGIVAIKGVESEFYLAMNKEGKLYAKKECNEDCNFKELILENHYNTYASAKWTHNGGEMFVALNQKGIPVRGKKTKKEQKTAHFLPMAIT
notes: Keratinocyte growth factor (R&D Systems) at 20 ng/ml
Question: Which epithelial cell proliferation does the source give for B2 here?
Answer: not supported
